Test results taken from the supplement of paper PMC10724198.
± gives the standard deviation of the averaged measurements.

Assays:
Saccharomyces cerevisiae [1] = assay: protein stability index of tFT-peptide fusion (C-terminal peptide) (PSI (0-1 scale)); higher = more stable (slower turnover)
Description: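 MPS profiling in S. cerevisiae of the tFT-X12 degron library: putative degron peptides plus stable controls, 12 aa, fused to the C-terminus of a sfGFP-mCherry timer. Cells are FACS-sorted into 8 mCherry/sfGFP bins and deep-sequenced. PSI runs from 0 (unstable) to 1 (stable). Backgrounds are wild type, das1Δ and doa10Δ at 30 °C, and wild type, das1Δ, cdc34-1 and cdc53-1 at 37 °C; 2-3 technical replicates each.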

Saccharomyces cerevisiae [2] = assay: as above; conditions: genetic background: wild type; temperature: 30 C
[3] = genetic background: cdc34-1, temperature: 37 C
[4] = genetic background: cdc53-1, temperature: 37 C
[5] = genetic background: das1 deletion, temperature: 30 C
[6] = genetic background: das1 deletion, temperature: 37 C
[7] = genetic background: doa10 deletion, temperature: 30 C
[8] = genetic background: wild type, temperature: 30 C
[9] = genetic background: wild type, temperature: 37 C
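Note: PSI is a weighted mean of sequencing reads over stability bins, variants kept only with over 10 reads, mCherry proximal and sfGFP distal, peptide attached via GGGS linker.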

## VGDVVWFGVGAG
Saccharomyces cerevisiae [1]; [3]
  protein stability index: 0.733 ± 0.033
Saccharomyces cerevisiae [1]; [4]
  protein stability index: 0.7757 ± 0.0042
Saccharomyces cerevisiae [1]; [5]
  protein stability index: 0.662 ± 0.0049
Saccharomyces cerevisiae [1]; [6]
  protein stability index: 0.782 ± 0.0084
Saccharomyces cerevisiae [1]; [7]
  protein stability index: 0.662 ± 0.022
Saccharomyces cerevisiae [1]; [8]
  protein stability index: 0.6566 ± 0.005
Saccharomyces cerevisiae [1]; [9]
  protein stability index: 0.7438 ± 0.0022
Saccharomyces cerevisiae [2]
  protein stability index: 0.761 ± 0.023

## VGEQEVVGIGGV
Saccharomyces cerevisiae [1]; [3]
  protein stability index: 0.674 ± 0.039
Saccharomyces cerevisiae [1]; [4]
  protein stability index: 0.7077 ± 0.0065
Saccharomyces cerevisiae [1]; [5]
  protein stability index: 0.653 ± 0.021
Saccharomyces cerevisiae [1]; [6]
  protein stability index: 0.735 ± 0.046
Saccharomyces cerevisiae [1]; [7]
  protein stability index: 0.642 ± 0.026
Saccharomyces cerevisiae [1]; [8]
  protein stability index: 0.646 ± 0.023
Saccharomyces cerevisiae [1]; [9]
  protein stability index: 0.719 ± 0.03
Saccharomyces cerevisiae [2]
  protein stability index: 0.695 ± 0.018

## VGGGCVVVVRWG
Saccharomyces cerevisiae [1]; [3]
  protein stability index: 0.589 ± 0.044
Saccharomyces cerevisiae [1]; [4]
  protein stability index: 0.615 ± 0.02
Saccharomyces cerevisiae [1]; [5]
  protein stability index: 0.485 ± 0.019
Saccharomyces cerevisiae [1]; [6]
  protein stability index: 0.619 ± 0.009
Saccharomyces cerevisiae [1]; [7]
  protein stability index: 0.477 ± 0.022
Saccharomyces cerevisiae [1]; [8]
  protein stability index: 0.475 ± 0.012
Saccharomyces cerevisiae [1]; [9]
  protein stability index: 0.594 ± 0.0083
Saccharomyces cerevisiae [2]
  protein stability index: 0.52 ± 0.035

## VGLWCWSFVLVW
Saccharomyces cerevisiae [1]; [3]
  protein stability index: 0.0589 ± 0.018
Saccharomyces cerevisiae [1]; [4]
  protein stability index: 0.0934 ± 0.034
Saccharomyces cerevisiae [1]; [5]
  protein stability index: 0.11 ± 0.03
Saccharomyces cerevisiae [1]; [6]
  protein stability index: 0.189 ± 0.0028
Saccharomyces cerevisiae [1]; [7]
  protein stability index: 0.0842 ± 0.021
Saccharomyces cerevisiae [1]; [8]
  protein stability index: 0.103 ± 0.023
Saccharomyces cerevisiae [1]; [9]
  protein stability index: 0.153 ± 0.0027
Saccharomyces cerevisiae [2]
  protein stability index: 0.156 ± 0.038

## VGRVIVIVVAGV
Saccharomyces cerevisiae [1]; [3]
  protein stability index: 0.329 ± 0.012
Saccharomyces cerevisiae [1]; [4]
  protein stability index: 0.395 ± 0.016
Saccharomyces cerevisiae [1]; [5]
  protein stability index: 0.274 ± 0.036
Saccharomyces cerevisiae [1]; [6]
  protein stability index: 0.4541 ± 0.0045
Saccharomyces cerevisiae [1]; [7]
  protein stability index: 0.236 ± 0.0065
Saccharomyces cerevisiae [1]; [8]
  protein stability index: 0.267 ± 0.028
Saccharomyces cerevisiae [1]; [9]
  protein stability index: 0.423 ± 0.022
Saccharomyces cerevisiae [2]
  protein stability index: 0.375 ± 0.033

## VGVCGSSGRVGG
Saccharomyces cerevisiae [1]; [3]
  protein stability index: 0.688 ± 0.03
Saccharomyces cerevisiae [1]; [4]
  protein stability index: 0.7314 ± 0.0042
Saccharomyces cerevisiae [1]; [5]
  protein stability index: 0.641 ± 0.014
Saccharomyces cerevisiae [1]; [6]
  protein stability index: 0.718 ± 0.0032
Saccharomyces cerevisiae [1]; [7]
  protein stability index: 0.643 ± 0.021
Saccharomyces cerevisiae [1]; [8]
  protein stability index: 0.645 ± 0.012
Saccharomyces cerevisiae [1]; [9]
  protein stability index: 0.717 ± 0.024
Saccharomyces cerevisiae [2]
  protein stability index: 0.7 ± 0.025

## VGVIGWGGLGVG
Saccharomyces cerevisiae [1]; [3]
  protein stability index: 0.486 ± 0.048
Saccharomyces cerevisiae [1]; [4]
  protein stability index: 0.5527 ± 0.0051
Saccharomyces cerevisiae [1]; [5]
  protein stability index: 0.487 ± 0.019
Saccharomyces cerevisiae [1]; [6]
  protein stability index: 0.549 ± 0.015
Saccharomyces cerevisiae [1]; [7]
  protein stability index: 0.4929 ± 0.0046
Saccharomyces cerevisiae [1]; [8]
  protein stability index: 0.485 ± 0.014
Saccharomyces cerevisiae [1]; [9]
  protein stability index: 0.542 ± 0.023
Saccharomyces cerevisiae [2]
  protein stability index: 0.492 ± 0.00099

## VHGWRPLLFHTR
Saccharomyces cerevisiae [1]; [3]
  protein stability index: 0.648 ± 0.032
Saccharomyces cerevisiae [1]; [4]
  protein stability index: 0.668 ± 0.0099
Saccharomyces cerevisiae [1]; [5]
  protein stability index: 0.647 ± 0.0073
Saccharomyces cerevisiae [1]; [6]
  protein stability index: 0.702 ± 0.031
Saccharomyces cerevisiae [1]; [7]
  protein stability index: 0.674 ± 0.024
Saccharomyces cerevisiae [1]; [8]
  protein stability index: 0.622 ± 0.024
Saccharomyces cerevisiae [1]; [9]
  protein stability index: 0.6989 ± 0.0063
Saccharomyces cerevisiae [2]
  protein stability index: 0.519 ± 0.13

## VHTAIFTSWRRL
Saccharomyces cerevisiae [1]; [3]
  protein stability index: 0.696 ± 0.048
Saccharomyces cerevisiae [1]; [4]
  protein stability index: 0.738 ± 0.018
Saccharomyces cerevisiae [1]; [5]
  protein stability index: 0.631 ± 0.04
Saccharomyces cerevisiae [1]; [6]
  protein stability index: 0.7721 ± 0.001
Saccharomyces cerevisiae [1]; [7]
  protein stability index: 0.481 ± 0.018
Saccharomyces cerevisiae [1]; [8]
  protein stability index: 0.494 ± 0.017
Saccharomyces cerevisiae [1]; [9]
  protein stability index: 0.685 ± 0.02
Saccharomyces cerevisiae [2]
  protein stability index: 0.491 ± 0.028

## VIGLLSYFLVYL
Saccharomyces cerevisiae [1]; [3]
  protein stability index: 0.498 ± 0.061
Saccharomyces cerevisiae [1]; [4]
  protein stability index: 0.513 ± 0.0062
Saccharomyces cerevisiae [1]; [5]
  protein stability index: 0.407 ± 0.037
Saccharomyces cerevisiae [1]; [6]
  protein stability index: 0.6091 ± 0.0039
Saccharomyces cerevisiae [1]; [7]
  protein stability index: 0.438 ± 0.032
Saccharomyces cerevisiae [1]; [8]
  protein stability index: 0.406 ± 0.019
Saccharomyces cerevisiae [1]; [9]
  protein stability index: 0.581 ± 0.03
Saccharomyces cerevisiae [2]
  protein stability index: 0.491 ± 0.02

## VIRSIVSAYMIC
Saccharomyces cerevisiae [1]; [3]
  protein stability index: 0.552 ± 0.043
Saccharomyces cerevisiae [1]; [4]
  protein stability index: 0.649 ± 0.013
Saccharomyces cerevisiae [1]; [5]
  protein stability index: 0.563 ± 0.013
Saccharomyces cerevisiae [1]; [6]
  protein stability index: 0.6726 ± 0.0028
Saccharomyces cerevisiae [1]; [7]
  protein stability index: 0.255 ± 0.0033
Saccharomyces cerevisiae [1]; [8]
  protein stability index: 0.248 ± 0.02
Saccharomyces cerevisiae [1]; [9]
  protein stability index: 0.334 ± 0.037
Saccharomyces cerevisiae [2]
  protein stability index: 0.293 ± 0.051

## VISGFVLVFRVR
Saccharomyces cerevisiae [1]; [3]
  protein stability index: 0.509 ± 0.0038
Saccharomyces cerevisiae [1]; [4]
  protein stability index: 0.543 ± 0.029
Saccharomyces cerevisiae [1]; [5]
  protein stability index: 0.356 ± 0.022
Saccharomyces cerevisiae [1]; [6]
  protein stability index: 0.591 ± 0.066
Saccharomyces cerevisiae [1]; [7]
  protein stability index: 0.379 ± 0.026
Saccharomyces cerevisiae [1]; [8]
  protein stability index: 0.344 ± 0.032
Saccharomyces cerevisiae [1]; [9]
  protein stability index: 0.566 ± 0.035
Saccharomyces cerevisiae [2]
  protein stability index: 0.441 ± 0.028

## VKGYISLLLVLI
Saccharomyces cerevisiae [1]; [3]
  protein stability index: 0.269 ± 0.01
Saccharomyces cerevisiae [1]; [4]
  protein stability index: 0.332 ± 0.012
Saccharomyces cerevisiae [1]; [5]
  protein stability index: 0.264 ± 0.04
Saccharomyces cerevisiae [1]; [6]
  protein stability index: 0.419 ± 0.0071
Saccharomyces cerevisiae [1]; [7]
  protein stability index: 0.289 ± 0.0043
Saccharomyces cerevisiae [1]; [8]
  protein stability index: 0.259 ± 0.014
Saccharomyces cerevisiae [1]; [9]
  protein stability index: 0.365 ± 0.011
Saccharomyces cerevisiae [2]
  protein stability index: 0.345 ± 0.013

## VLAARVVLLRCR
Saccharomyces cerevisiae [1]; [3]
  protein stability index: 0.207 ± 0.0095
Saccharomyces cerevisiae [1]; [4]
  protein stability index: 0.216 ± 0.033
Saccharomyces cerevisiae [1]; [5]
  protein stability index: 0.199 ± 0.031
Saccharomyces cerevisiae [1]; [6]
  protein stability index: 0.335 ± 0.0052
Saccharomyces cerevisiae [1]; [7]
  protein stability index: 0.179 ± 0.0064
Saccharomyces cerevisiae [1]; [8]
  protein stability index: 0.195 ± 0.028
Saccharomyces cerevisiae [1]; [9]
  protein stability index: 0.3113 ± 0.001
Saccharomyces cerevisiae [2]
  protein stability index: 0.2612 ± 0.0024

## VLCFTSAYHRLV
Saccharomyces cerevisiae [1]; [3]
  protein stability index: 0.662 ± 0.017
Saccharomyces cerevisiae [1]; [4]
  protein stability index: 0.739 ± 0.015
Saccharomyces cerevisiae [1]; [5]
  protein stability index: 0.631 ± 0.0098
Saccharomyces cerevisiae [1]; [6]
  protein stability index: 0.724 ± 0.014
Saccharomyces cerevisiae [1]; [7]
  protein stability index: 0.206 ± 0.014
Saccharomyces cerevisiae [1]; [8]
  protein stability index: 0.262 ± 0.019
Saccharomyces cerevisiae [1]; [9]
  protein stability index: 0.5171 ± 0.0028
Saccharomyces cerevisiae [2]
  protein stability index: 0.425 ± 0.049

## VLFLLLFVSRVA
Saccharomyces cerevisiae [1]; [3]
  protein stability index: 0.2684 ± 0.0016
Saccharomyces cerevisiae [1]; [4]
  protein stability index: 0.398 ± 0.017
Saccharomyces cerevisiae [1]; [5]
  protein stability index: 0.259 ± 0.035
Saccharomyces cerevisiae [1]; [6]
  protein stability index: 0.453 ± 0.016
Saccharomyces cerevisiae [1]; [7]
  protein stability index: 0.203 ± 0.012
Saccharomyces cerevisiae [1]; [8]
  protein stability index: 0.224 ± 0.03
Saccharomyces cerevisiae [1]; [9]
  protein stability index: 0.381 ± 0.042
Saccharomyces cerevisiae [2]
  protein stability index: 0.3312 ± 0.0014

## VLLCFFLGIVGF
Saccharomyces cerevisiae [1]; [3]
  protein stability index: 0.36 ± 0.045
Saccharomyces cerevisiae [1]; [4]
  protein stability index: 0.487 ± 0.035
Saccharomyces cerevisiae [1]; [5]
  protein stability index: 0.322 ± 0.024
Saccharomyces cerevisiae [1]; [6]
  protein stability index: 0.488 ± 0.011
Saccharomyces cerevisiae [1]; [7]
  protein stability index: 0.296 ± 0.0087
Saccharomyces cerevisiae [1]; [8]
  protein stability index: 0.299 ± 0.012
Saccharomyces cerevisiae [1]; [9]
  protein stability index: 0.489 ± 0.027
Saccharomyces cerevisiae [2]
  protein stability index: 0.396 ± 0.045

## VLLSFVFCGWVR
Saccharomyces cerevisiae [1]; [3]
  protein stability index: 0.458 ± 0.014
Saccharomyces cerevisiae [1]; [4]
  protein stability index: 0.4842 ± 0.0018
Saccharomyces cerevisiae [1]; [5]
  protein stability index: 0.345 ± 0.027
Saccharomyces cerevisiae [1]; [6]
  protein stability index: 0.516 ± 0.0096
Saccharomyces cerevisiae [1]; [7]
  protein stability index: 0.326 ± 0.013
Saccharomyces cerevisiae [1]; [8]
  protein stability index: 0.349 ± 0.025
Saccharomyces cerevisiae [1]; [9]
  protein stability index: 0.4963 ± 0.0042
Saccharomyces cerevisiae [2]
  protein stability index: 0.442 ± 0.019

## VLLVSVFVATLL
Saccharomyces cerevisiae [1]; [3]
  protein stability index: 0.124 ± 0.013
Saccharomyces cerevisiae [1]; [4]
  protein stability index: 0.256 ± 0.0095
Saccharomyces cerevisiae [1]; [5]
  protein stability index: 0.143 ± 0.033
Saccharomyces cerevisiae [1]; [6]
  protein stability index: 0.334 ± 0.0086
Saccharomyces cerevisiae [1]; [7]
  protein stability index: 0.113 ± 0.0087
Saccharomyces cerevisiae [1]; [8]
  protein stability index: 0.135 ± 0.022
Saccharomyces cerevisiae [1]; [9]
  protein stability index: 0.284 ± 0.0077
Saccharomyces cerevisiae [2]
  protein stability index: 0.21 ± 0.012
